One molecule from patent US20200239573A1 (CRESCENDO BIOLOGICS, published 2020) can be followed below.

The target in one assay is T1, mouse PD-1 protein (mouse, UniProt Q02242 25-167).
T1 construct: Detected with anti human-Fc cryptate, so probably Fc tagged; also called mouse PD-1 (R&D Systems cat no. 1021-PD)
T1 sequence (looked up): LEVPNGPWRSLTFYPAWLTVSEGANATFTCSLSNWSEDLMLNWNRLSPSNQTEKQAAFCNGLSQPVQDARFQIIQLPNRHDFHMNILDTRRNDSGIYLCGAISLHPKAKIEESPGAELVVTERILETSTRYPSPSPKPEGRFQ
As to the kind of experiment: HTRF binding. (In TR-FRET formats the signal depends on donor and acceptor labels being close together.)

Assay [1] deals with T2, human PD-1 expressed on cells (CHO human PD-1 cells) (human, UniProt Q15116 21-288). As to the kind of experiment: cell-based or functional assay.
Assay [2] deals with T2, human PD-1 expressed on cells (CHO …). Nature of the assay: cell-based or functional assay. This is another data set of the same source.
For assay [3], the target named is T3, Strep tagged recombinant human PD-1 (human, UniProt Q15116 25-170, limits assumed).
T3 construct: the whole entry is named; also called strep tagged human PD-1; not shown: Strep tag
As to the kind of experiment: SPR Biacore T200, strep-tagged PD-1 amine-coupled, single cycle kinetics.

T3 sequence (Q15116 25-170 limits assumed): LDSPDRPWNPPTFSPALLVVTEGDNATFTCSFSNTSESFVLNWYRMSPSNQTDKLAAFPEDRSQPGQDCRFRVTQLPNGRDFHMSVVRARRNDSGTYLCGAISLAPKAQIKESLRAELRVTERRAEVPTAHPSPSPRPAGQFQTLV
T2 sequence (Q15116 21-288): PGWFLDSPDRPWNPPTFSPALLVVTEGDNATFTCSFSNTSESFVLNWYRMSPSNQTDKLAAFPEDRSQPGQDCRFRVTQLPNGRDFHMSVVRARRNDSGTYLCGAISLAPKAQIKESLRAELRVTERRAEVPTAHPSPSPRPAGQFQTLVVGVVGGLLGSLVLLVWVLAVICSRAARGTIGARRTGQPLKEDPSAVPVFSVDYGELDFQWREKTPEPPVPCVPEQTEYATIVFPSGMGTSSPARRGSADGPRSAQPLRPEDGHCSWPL

B1: 1.57-4GS-1.57 (other)
chain: QVQLVESGGGLVKPGGSLRLSCAASGFTFSDNSMTWMRQAPGKGLEWVSYISSGGGVIFYADSVKGRFTISRDNAKNSLYLQMNSLRADDTAVYYCAREAPLRLGESPHDAFDISGQGTMVTVSSGGGGSGGGGSGGGGSGGGGSQVQLVESGGGLVKPGGSLRLSCAASGFTFSDNSMTWMRQAPGKGLEWVSYISSGGGVIFYADSVKGRFTISRDNAKNSLYLQMNSLRADDTAVYYCAREAPLRLGESPHDAFDISGQGTMVTVSS
notes: bivalent construct of two VH domains in one chain
For orientation: Kd means the equilibrium constant for the complex coming apart. In general, koff refers to the first-order rate constant of dissociation. For orientation: kon means the rate constant with which the complex forms. For B1, the binding result with mouse PD-1 protein is “no binding”. In addition, the “EC50 (M), reporter assay” value in assay [1] came out at 1e-09 M. In addition, the “EC50 (M), human PD-1 reporter gene assay” value in assay [2] was determined as 1e-09 M. Also, in assay [3], the Kd is 0.0173 nM, the koff worked out at 1.54e-05 s⁻¹ and the on-rate constant (kon) turned out to be 888000 M⁻¹ s⁻¹.
